Laboratory results from paper PMC12325603 (Nature Communications, 2025).

Target: the molecule itself
Test: cryo-electron tomography

B1: Munc13C K1494D/K1495D/K1500D (trimer 3xD) (domain or fragment)
chain: not shown
stoichiometry N: 6
